The record followed here is paper PMC8501970, “Structural basis for activation of Swi2/Snf2 ATPase RapA by RNA polymerase” (Nucleic Acids Research, 2021).

Assay [1] concerns the target T1, RNAP β subunit (Escherichia coli, UniProt P0A8V2 1-1342).
T1 construct: RNA polymerase beta subunit, Escherichia coli, as in the core enzyme m2; Stood in the structure as a subunit of the RNAP elongation complex; also called β flap tip helix (FTH) lies in it; source: part of the purified E. coli RNAP core enzyme
Nature of the assay: cryo-EM structure; RapA–RNAP complex purified by gel filtration, 10 μM incubated with 25 μM DNA/RNA hybrid in 20 mM Tris–HCl pH 7.5, 50 mM NaCl, 5 mM MgCl2, 0.2 mM AMPPNP at 37°C for 10 min; 8 mM CHAPSO added before grids; 3.4 Å map. The conditions noted are these: both partners purified.

Assay [2] has as its target T2, RNAP β' subunit (Escherichia coli, UniProt P0A8T7 1-1407).
T2 construct: RNA polymerase beta' subunit, Escherichia coli, as in the core enzyme m2; Stood in the structure as a subunit of the RNAP elongation complex; source: part of the purified E. coli RNAP core enzyme
The assay is described as above. The conditions noted are these: both partners purified.

T2 sequence (P0A8T7 whole entry): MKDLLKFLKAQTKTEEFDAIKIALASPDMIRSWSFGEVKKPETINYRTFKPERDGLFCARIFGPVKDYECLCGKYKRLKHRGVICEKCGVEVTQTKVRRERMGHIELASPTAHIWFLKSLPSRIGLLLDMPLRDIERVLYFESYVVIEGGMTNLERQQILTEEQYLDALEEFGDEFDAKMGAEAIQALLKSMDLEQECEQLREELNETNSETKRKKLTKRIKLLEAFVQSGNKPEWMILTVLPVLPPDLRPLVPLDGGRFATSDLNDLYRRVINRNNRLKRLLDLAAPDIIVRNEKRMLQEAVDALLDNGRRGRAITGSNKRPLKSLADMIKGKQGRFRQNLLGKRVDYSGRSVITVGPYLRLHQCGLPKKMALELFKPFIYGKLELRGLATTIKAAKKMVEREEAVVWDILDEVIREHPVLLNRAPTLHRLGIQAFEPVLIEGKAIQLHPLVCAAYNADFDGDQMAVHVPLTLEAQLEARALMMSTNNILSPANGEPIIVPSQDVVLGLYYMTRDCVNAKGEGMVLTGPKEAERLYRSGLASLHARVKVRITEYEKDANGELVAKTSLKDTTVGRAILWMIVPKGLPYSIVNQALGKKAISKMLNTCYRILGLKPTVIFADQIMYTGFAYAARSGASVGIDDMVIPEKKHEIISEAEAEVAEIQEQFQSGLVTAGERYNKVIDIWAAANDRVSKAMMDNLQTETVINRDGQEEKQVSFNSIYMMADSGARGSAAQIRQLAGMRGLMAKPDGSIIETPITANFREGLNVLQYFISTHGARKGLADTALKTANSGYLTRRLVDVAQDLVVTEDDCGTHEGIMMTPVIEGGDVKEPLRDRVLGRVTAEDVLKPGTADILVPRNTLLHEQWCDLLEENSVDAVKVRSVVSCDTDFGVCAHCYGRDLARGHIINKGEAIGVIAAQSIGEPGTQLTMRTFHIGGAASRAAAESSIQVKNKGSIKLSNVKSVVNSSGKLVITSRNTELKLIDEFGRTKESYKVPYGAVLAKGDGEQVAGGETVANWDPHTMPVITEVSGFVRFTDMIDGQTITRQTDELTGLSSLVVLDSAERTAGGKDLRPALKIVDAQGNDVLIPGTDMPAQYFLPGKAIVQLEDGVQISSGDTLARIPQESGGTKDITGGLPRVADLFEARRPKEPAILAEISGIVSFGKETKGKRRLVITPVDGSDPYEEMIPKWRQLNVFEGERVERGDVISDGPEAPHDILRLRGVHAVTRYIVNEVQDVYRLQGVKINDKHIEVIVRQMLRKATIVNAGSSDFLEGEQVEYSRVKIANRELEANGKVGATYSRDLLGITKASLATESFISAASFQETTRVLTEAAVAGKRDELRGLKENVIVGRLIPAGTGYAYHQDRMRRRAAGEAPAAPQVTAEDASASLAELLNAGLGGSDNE
T1 sequence (P0A8V2 whole entry): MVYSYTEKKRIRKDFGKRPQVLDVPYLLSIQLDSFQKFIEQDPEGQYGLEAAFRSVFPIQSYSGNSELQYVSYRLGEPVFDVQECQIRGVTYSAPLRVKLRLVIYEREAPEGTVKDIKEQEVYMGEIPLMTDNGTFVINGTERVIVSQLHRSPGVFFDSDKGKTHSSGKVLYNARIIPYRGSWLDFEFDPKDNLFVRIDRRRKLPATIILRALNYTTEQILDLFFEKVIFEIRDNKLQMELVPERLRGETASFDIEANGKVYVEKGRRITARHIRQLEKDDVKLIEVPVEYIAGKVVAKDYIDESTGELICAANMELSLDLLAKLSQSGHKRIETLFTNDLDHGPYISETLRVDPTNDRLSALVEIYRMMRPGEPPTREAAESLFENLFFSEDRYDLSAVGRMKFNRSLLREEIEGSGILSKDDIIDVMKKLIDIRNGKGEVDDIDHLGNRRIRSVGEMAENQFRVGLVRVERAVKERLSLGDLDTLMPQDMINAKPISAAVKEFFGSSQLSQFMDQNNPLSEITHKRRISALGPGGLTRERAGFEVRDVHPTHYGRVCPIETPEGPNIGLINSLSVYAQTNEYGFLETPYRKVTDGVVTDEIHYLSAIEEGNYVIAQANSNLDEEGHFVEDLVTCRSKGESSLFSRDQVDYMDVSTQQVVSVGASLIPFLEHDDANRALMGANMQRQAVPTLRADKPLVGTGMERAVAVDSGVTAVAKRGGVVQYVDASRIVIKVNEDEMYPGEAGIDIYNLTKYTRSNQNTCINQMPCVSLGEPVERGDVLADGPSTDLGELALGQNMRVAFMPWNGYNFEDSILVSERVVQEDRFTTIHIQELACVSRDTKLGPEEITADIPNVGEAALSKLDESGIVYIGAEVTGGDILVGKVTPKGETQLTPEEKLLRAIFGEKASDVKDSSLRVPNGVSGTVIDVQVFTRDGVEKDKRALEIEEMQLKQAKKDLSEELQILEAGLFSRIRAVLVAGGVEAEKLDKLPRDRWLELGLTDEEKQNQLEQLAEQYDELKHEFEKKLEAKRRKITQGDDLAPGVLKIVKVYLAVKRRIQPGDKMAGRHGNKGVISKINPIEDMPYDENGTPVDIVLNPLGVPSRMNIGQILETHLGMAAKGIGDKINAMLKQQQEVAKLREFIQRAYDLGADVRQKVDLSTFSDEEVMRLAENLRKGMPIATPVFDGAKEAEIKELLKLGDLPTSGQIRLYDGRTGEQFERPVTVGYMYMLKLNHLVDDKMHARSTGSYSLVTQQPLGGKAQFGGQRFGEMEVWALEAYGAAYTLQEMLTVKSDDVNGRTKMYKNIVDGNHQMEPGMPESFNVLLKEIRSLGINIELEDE

B1: N-terminal His-tagged RapA protein (enzyme, Escherichia coli)
chain: MPFTLGQRWISDTESELGLGTVVAVDARTVTLLFPSTGENRLYARSDSPVTRVMFNPGDTITSHDGWQMQVEEVKEENGLLTYIGTRLDTEESGVALREVFLDSKLVFSKPQDRLFAGQIDRMDRFALRYRARKYSSEQFRMPYSGLRGQRTSLIPHQLNIAHDVGRRHAPRVLLADEVGLGKTIEAGMILHQQLLSGAAERVLIIVPETLQHQWLVEMLRRFNLRFALFDDERYAEAQHDAYNPFDTEQLVICSLDFARRSKQRLEHLCEAEWDLLVVDEAHHLVWSEDAPSREYQAIEQLAEHVPGVLLLTATPEQLGMESHFARLRLLDPNRFHDFAQFVEEQKNYRPVADAVAMLLAGNKLSNDELNMLGEMIGEQDIEPLLQAANSDSEDAQSARQELVSMLMDRHGTSRVLFRNTRNGVKGFPKRELHTIKLPLPTQYQTAIKVSGIMGARKSAEDRARDMLYPERIYQEFEGDNATWWNFDPRVEWLMGYLTSHRSQKVLVICAKAATALQLEQVLREREGIRAAVFHEGMSIIERDRAAAWFAEEDTGAQVLLCSEIGSEGRNFQFASHMVMFDLPFNPDLLEQRIGRLDRIGQAHDIQIHVPYLEKTAQSVLVRWYHEGLDAFEHTCPTGRTIYDSVYNDLINYLASPDQTEGFDDLIKNCREQHEALKAQLEQGRDRLLEIHSNGGEKAQALAESIEEQDDDTNLIAFAMNLFDIIGINQDDRGDNMIVLTPSDHMLVPDFPGLSEDGITITFDREVALAREDAQFITWEHPLIRNGLDLILSGDTGSSTISLLKNKALPVGTLLVELIYVVEAQAPKQLQLNRFLPPTPVRMLLDKNGNNLAAQVEFETFNRQLNAVNRHTGSKLVNAVQQDVHAILQLGEAQIEKSARALIDAARNEADEKLSAELSRLEALRAVNPNIRDDELTAIESNRQQVMESLDQAGWRLDALRLIVVTHQ
notes: RapA (HepA), RNA polymerase-associated Swi2/Snf2 ATPase, Escherichia coli; construct of the cryo-EM sample; also called HepA
Turning to B1, the binding result in assay [1] and in assay [2] was “binds” each time.
